In patent US20100240040A1 (INSTITUT PASTEUR, published 2010):
Values belong to the binder of their own block, whether it stands above or below them. Where no end group is shown, it is not given here. Bodipy = not defined here

What was measured:
[1] = target: NEMO (endogenous, in 70Z/3-C3 cells) (UniProt O88522 1-412, limits assumed); experiment: cell-based or functional assay
spCC2-LZ = target: T1, spCC2-LZ (murine); experiment: fluorescence anisotropy, 10 µM labelled peptide titrated with spCC2-LZ
T1 construct: also called MOD; minimal oligomerization domain of NEMO
T1 chain: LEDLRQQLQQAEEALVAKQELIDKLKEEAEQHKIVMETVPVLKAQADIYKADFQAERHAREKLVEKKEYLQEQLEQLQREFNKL
Text: The concentration of spCC2-LZ was determining by amino acid analysis (Vinolo et al; 2006).

[2] = target: the molecule itself; experiment: circular dichroism and gel filtration (data not shown)

Chain of NEMO (endogenous, in 70Z/3-C3 cells) (O88522 whole entry): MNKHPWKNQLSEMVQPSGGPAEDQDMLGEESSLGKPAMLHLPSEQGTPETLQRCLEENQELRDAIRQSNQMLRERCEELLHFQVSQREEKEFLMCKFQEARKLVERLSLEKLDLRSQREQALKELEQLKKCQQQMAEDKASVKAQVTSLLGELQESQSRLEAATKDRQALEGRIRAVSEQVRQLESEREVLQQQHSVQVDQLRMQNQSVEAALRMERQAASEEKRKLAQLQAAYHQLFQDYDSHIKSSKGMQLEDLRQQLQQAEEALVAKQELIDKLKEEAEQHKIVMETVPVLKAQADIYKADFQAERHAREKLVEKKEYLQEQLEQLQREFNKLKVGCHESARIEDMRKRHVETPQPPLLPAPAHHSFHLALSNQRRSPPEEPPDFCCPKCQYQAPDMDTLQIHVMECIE

- IC50 of NF-κB activity (β-galactosidase reporter in 70Z/3-C3 cells after PMA, IL-1 or LPS) [1]: 0.9 µM
- Kd (spCC2-LZ): 17 µM
B1: BA-DR NLM (peptide)
peptide: C(Bodipy)RQIKIWFQNRRMKWKKLKAQADIYKARFQAERHAREK
modifications: reading uncertain
notes: also called BA-NLM-DR; DR NLM fused to its N-terminus with the antennapedia peptide

- Kd (spCC2-LZ): 21 µM
B2: BR7-DR NLM (peptide)
peptide: C(Bodipy)RRRRRRRLKAQADIYKARFQAERHAREK
modifications: reading uncertain
notes: also called DR NLM fused to the poly R7 peptide

B3: DR NLM (peptide)
peptide: LKAQADIYKARFQAERHAREK
notes: also called tag-free DR NLM; NLM-DR
- binding result [2]: no binding (tested: up to 100 µM)

B4: NLM (peptide)
peptide: LKAQADIYKADFQAERHAREK
notes: also called tag-free NLM; NLM peptide of NEMO
- binding result [2]: no binding (tested: up to 100 µM)
